Test results: US20140134169A1, “Methods of Treating Ovarian Cancer with Dll4 Antagonists” (Regeneron Pharmaceuticals, Inc., priority 2012, published 2014)

How the values were obtained:
Type in all cases: in vivo, human
TOV-112D cells = test: TOV-112D ovarian xenograft (subcutaneous) tumor growth inhibition; conditions: SCID mice (native murine Dll4); REGN421 2.5 mg/kg or mDll4Ab1 5 mg/kg 1x/week
Description: (§1) Ovarian tumor xenograft cells were implanted into humanized Dll4 SCID mice or vendor SCID mice (i.e., SCID mice expressing native murine Dll4). After implantation, mice were treated with REGN421 (anti-human Dll4 antibody, binds to human Dll4), mDll4Ab1 (anti-murine Dll4 antibody, binds to murine Dll4), or a human Fc domain control protein. In one study, mice were treated with VEGF-Trap, mDll4Ab1 or VEGF-Trap plus mDll4Ab1. TOV-112D cells (5×10^6) were implanted subcutaneously into the right flank of humanized Dll4 (n=4) or vendor SCID mice (n=7). Treatment with REGN421 (2.5 mg/kg, 1×/week) or mDll4Ab1 (5 mg/kg, 1×/week) vs. hFc control was initiated one week after tumor cell implantation. Animals were treated for 2 to 3 weeks. A2780 cells (2×10^6) were implanted intraperitoneally into humanized Dll4 or vendor SCID mice (n=4-5). Treatment with REGN421 (2.5 mg/kg, 1×/week) or mDll4Ab1 (5 mg/kg, 1×/week) vs. hFc control was initiated one week after tumor cell implantation. For the A2780 combination study, simultaneous treatment with mDll4Ab1 (5 mg/kg, 1×/week) and VEGF-Trap (10 mg/kg, 2×/week) was initiated one week after tumor cell implantation. A VEGF-Trap single treatment arm was included in this study. Animals bearing A2780 tumors were treated for 4-5 weeks. SKOV-3 cells (5×10^6) in matrigel were implanted subcutaneously and tumor-bearing animals (n=10) were dosed with REGN421 (2.5 mg/kg) and mDll4Ab1 (5 mg/kg) once weekly. OVCAR-3 cells (1×10^7) were implanted subcutaneously into the right flank of vendor SCID mice (n=7). Treatment with mDll4Ab1 (5 mg/kg 1×/week) vs. hFc control was initiated 66 days after tumor cell implantation. Animals were treated for a total of 5 weeks. Tumor growth inhibition (TGI) was measured as detailed above.

A2780 cells = test: A2780 ovarian xenograft (intraperitoneal) tumor growth inhibition; conditions: SCID mice (native murine Dll4); REGN421 2.5 mg/kg 1x/week, mDll4Ab1 5 mg/kg 1x/week, VEGF-Trap 10 mg/kg 2x/week
Description: as §1

SKOV-3 cells = test: SKOV-3 ovarian xenograft (subcutaneous) tumor growth inhibition; conditions: SCID mice; mDll4Ab1 5 mg/kg once weekly
Description: as §1, with “SKOV-3 cells (5×10^6) in matrigel were implanted subcutaneously and tumor-bearing animals (n=10) were dosed with REGN421 (2.5 mg/kg) and mDll4Ab1 (5 mg/kg) once weekly. OVCAR-3 cells (1×10^7) were implanted subcutaneously into the right flank of vendor SCID mice (n=7). Treatment with mDll4Ab1 (5 mg/kg 1×/week) vs. hFc control was initiated 66 days after tumor cell implantation. Animals were treated for a total of 5 weeks.” left out

OVCAR-3 cells = test: OVCAR-3 ovarian xenograft (subcutaneous) tumor growth inhibition; conditions: SCID mice; mDll4Ab1 5 mg/kg 1x/week, 5 weeks
Description: as §1, with “SKOV-3 cells (5×10^6) in matrigel were implanted subcutaneously and tumor-bearing animals (n=10) were dosed with REGN421 (2.5 mg/kg) and mDll4Ab1 (5 mg/kg) once weekly. OVCAR-3 cells (1×10^7) were implanted subcutaneously into the right flank of vendor SCID mice (n=7). Treatment with mDll4Ab1 (5 mg/kg 1×/week) vs. hFc control was initiated 66 days after tumor cell implantation. Animals were treated for a total of 5 weeks.” left out

[1] = system: TOV-112D ovarian tumor xenografts; test: Tumor microvascular density by CD31 staining, TOV-112D xenograft; conditions: native Dll4 SCID mice
Description: (§2) Quantitation of tumor microvascular density was evaluated immunohistochemically using CD31 staining. Native Dll4 SCID mice with TOV-112D and SKOV-3 ovarian tumor xenografts were treated with the anti-murine Dll4 antibody mDll4Ab1 or hFc (control). […] A reduction of tumor perfusion was also seen (data not shown).

[2] = system: SKOV-3 ovarian tumor xenografts; test: Tumor microvascular density by CD31 staining, SKOV-3 xenograft; conditions: native Dll4 SCID mice
Description: as §2

[3] = system: TOV-112D and SKOV-3 ovarian tumor xenografts; test: Tumor perfusion in ovarian tumor xenografts; conditions: data not shown
Description: as §2

B1: mDII4Ab1: anti-murine Dll4 antibody with LCVR and HCVR of SEQ ID NO:122 and 123 (antibody)
heavy: EVQLVESGGDLVKPGGSLKLSCTASGFTFSNYGMSWVRQTPDKRLGWVATISTAGSYTYYPDSVKGRFTISRDNAKNTLYLQMSSLKSEDTAMYYCARHPGVADFDYWGQGTTLTVSSAKTTAPSVYPLAPVCGDTTGSSVTLGCLVKGYFPEPVTLTWNSGSLSSGVHTFPAVLQSDLYTLSSSVTVTSSTWPSQSITCNVAHPASSTKVDKKIEPRGPTIKPCPPCKCPAPNLLGGPSVFIFPPKIKDVLMISLSPIVTCVVVDVSEDDPDVQISWFVNNVEVHTAQTQTHREDYNSTLRVVSALPIQHQDWMSGKEFKCKVNNKDLPAPIERTISKPKGSVRAPQVYVLPPPEEEMTKKQVTLTCMVTDFMPEDIYVEWTNNGKTELNYKNTEPVLDSDGSYFMYSKLRVEKKNWVERNSYSCSVVHEGLHNHHTTKSFSRTPGK
light: DIVMTQSHKFMSISEGDRVSITCKARQDVTTSVAWYQQKPGQSPKLLIYWASTRHTGVPDRFTGSGSGTDFTLTISSVQAEDLALYYCQQHYSTPYTFGGGTKLEIKRADAAPTVSIFPPSSEQLTSGGASVVCFLNNFYPKDINVKWKIDGSERQNGVLNSWTDQDSKDSTYSMSSTLTLTKDEYERHNSYTCEATHKTSTSPIVKSFNRGEC
% TGI (TOV-112D cells): 74%
% TGI (A2780 cells): 70%
% TGI (SKOV-3 cells): 64%
% TGI (OVCAR-3 cells): 84%
Increase in Vessel Area vs. hFc (%) [1]: 276.5%
Vessel Area (%), percent vessel fraction over total tumor area [1]: 5.53%
Increase in Vessel Area vs. hFc (%) [2]: 146.8%
Vessel Area (%), percent vessel fraction over total tumor area [2]: 4.36%
tumor perfusion [3]: reduction
